Results reported in patent US20030113725A1.

Tests used:
[1] = tested on: HA epitope tagged Del301-303 alpha-2B adrenergic receptor
[2] = biological target: HA epitope tagged wild-type alpha-2B adrenergic receptor (human) (UniProt P18089); assay: cell-based or functional assay
[3] = biological target: HA epitope tagged Del301-303 alpha-2B adrenergic receptor (human) (UniProt P18089); assay: cell-based or functional assay
Gi = assay: cell-based or functional assay
Gi/Go = assay: cell-based or functional assay

Molecule	inhibition of adenylyl cyclase (epinephrine, CHO membranes) (Gi) [% inhibition]	maximal inhibition of adenylyl cyclase (partial agonist oxymetazoline, CHO membranes) (Gi) [% inhibition]	stimulation of MAP kinase (10 µM epinephrine, CHO cells) (fold increase over basal) (Gi)	Max Inhibition (%) of adenylyl cyclase, BHT-933 (Gi) [%]	Max Inhibition (%) of adenylyl cyclase, UK 14304 (Gi) [%]	Max Inhibition (%) of adenylyl cyclase, clonidine (Gi) [%]	Max Inhibition (%) of adenylyl cyclase, guanabenz (Gi) [%]	Max Inhibition (%) of adenylyl cyclase, norepinephrine (Gi) [%]	Max Inhibition (%) of adenylyl cyclase, oxymetazoline (Gi) [%]	inhibition of adenylyl cyclase (epinephrine, lower expressing CHO lines) (Gi) [% inhibition]	maximal inhibition of adenylyl cyclase (epinephrine, higher expressing CHO lines) (Gi) [% inhibition]	epinephrine-stimulated accumulation of inositol phosphates (10 µM, intact CHO cells) (Gi/Go) [% over basal]	high affinity dissociation constant KH of the agonist epinephrine (competition with [3H]yohimbine without GTP) (Gi/Go) [nM]	percentage of receptors in the high-affinity state (% RH), epinephrine competition without GTP (Gi/Go) [%]	further results
GRK2 (βARK1)	–	–	–	–	–	–	–	–	–	–	–	–	–	–	agonist-promoted phosphorylation as percent of wild-type [1]: the Del301-303 receptor displayed -56% of wild-type phosphorylation; basal phosphorylation, compared with the wild-type receptor [1]: Basal phosphorylation was equivalent between the two receptors
GRK2 (βARK1) (enzyme)	–	–	–	–	–	–	–	–	–	–	–	–	–	–	agonist-promoted whole cell receptor phosphorylation (norepinephrine, COS-7 cells coexpressing GRK2) (fold increase) [2]: 5.84; agonist-promoted whole cell receptor phosphorylation (norepinephrine, COS-7 cells coexpressing GRK2) (fold increase) [3]: 3.28
Del322-325 alpha-2C adrenergic receptor, P18825 1-462 (receptor) MASPALAAALAVAAAAGPNASGAGERGSGGVANASGASWGPPRGQYSAGAVAGLAAVVGFLIVFTVVGNVLVVIAVLTSRALRAPQNLFLVSLASADILVATLVMPFSLANELMAYWYFGQVWCGVYLALDVLFCTSSIVHLCAISLDRYWSVTQAVEYNLKRTPRRVKATIVAVWLISAVISFPPLVSLYRQPDGAAYPQCGLNDETWYILSSCIGSFFAPCLIMGLVYARIYRVAKRRTRTLSEKRAPVGPDGASPTTENGLGAAAGAGENGHCAPPPADVEPDESSAAAERRRRRGALRRGGRRRAGAEGGAGGADGQGAAESGALTASRSPGPGGRLSRASSRSVEFFLSRRRRARSSVCRRKVAQAREKRFTFVLAVVMGVFVLCWFPFFFIYSLYGICREACQVPGPLFKFFFWIGYCNSSLNPVIYTVFNQDFRPSFKHILFRRRRRGFRQ	–	–	–	26.7	30.8	20.9	30	34.9	12.8	10	31	11	7.3	31	impairment of maximal adenylyl cyclase inhibition against wild-type (higher expressing CHO lines) (Gi): 50 % impairment; impairment of inositol phosphate accumulation against wild-type (Gi/Go): 60 % impairment

Second part, led by results:

inhibition of adenylyl cyclase (epinephrine, CHO membranes) (Gi) [% inhibition]	maximal inhibition of adenylyl cyclase (partial agonist oxymetazoline, CHO membranes) (Gi) [% inhibition]	stimulation of MAP kinase (10 µM epinephrine, CHO cells) (fold increase over basal) (Gi)	Max Inhibition (%) of adenylyl cyclase, BHT-933 (Gi) [%]	Max Inhibition (%) of adenylyl cyclase, UK 14304 (Gi) [%]	Max Inhibition (%) of adenylyl cyclase, clonidine (Gi) [%]	Max Inhibition (%) of adenylyl cyclase, guanabenz (Gi) [%]	Max Inhibition (%) of adenylyl cyclase, norepinephrine (Gi) [%]	Max Inhibition (%) of adenylyl cyclase, oxymetazoline (Gi) [%]	inhibition of adenylyl cyclase (epinephrine, lower expressing CHO lines) (Gi) [% inhibition]	maximal inhibition of adenylyl cyclase (epinephrine, higher expressing CHO lines) (Gi) [% inhibition]	epinephrine-stimulated accumulation of inositol phosphates (10 µM, intact CHO cells) (Gi/Go) [% over basal]	high affinity dissociation constant KH of the agonist epinephrine (competition with [3H]yohimbine without GTP) (Gi/Go) [nM]	percentage of receptors in the high-affinity state (% RH), epinephrine competition without GTP (Gi/Go) [%]	Molecule	further results
60	50	57	–	–	–	–	–	–	–	–	–	–	–	polymorphic Lys251 alpha-2A adrenergic receptor, P08913 16-465 (receptor) MGSLQPDAGNASWNGTEAPGGGARATPYSLQVTLTLVCLAGLLMLLTVFGNVLVIIAVFTSRALKAPQNLFLVSLASADILVATLVIPFSLANEVMGYWYFGKAWCEIYLALDVLFCTSSIVHLCAISLDRYWSITQAIEYNLKRTPRRIKAIIITVWVISAVISFPPLISIEKKGGGGGPQPAEPRCEINDQKWYVISSCIGSFFAPCLIMILVYVRIYQIAKRRTRVPPSRRGPDAVAAPPGGTERRPKGLGPERSAGPGGAEAEPLPTQLNGAPGEPAPAGPRDTDALDLEESSSSDHAERPPGPRRPERGPRGKGKARASQVKPGDSLPRRGPGATGIGTPAAGPGEERVGAAKASRWRGRQNREKRFTFVLAVVIGVFVVCWFPFFFTYTLTAVGCSVPRTLFKFFFWFGYCNSSLNPVIYTIFNHDFRRAFKKILCRGDRKRIV	–
46	35	15	–	–	–	–	–	–	–	–	–	–	–	wild-type Asn251 alpha-2A adrenergic receptor, P08913 16-465 (receptor) MGSLQPDAGNASWNGTEAPGGGARATPYSLQVTLTLVCLAGLLMLLTVFGNVLVIIAVFTSRALKAPQNLFLVSLASADILVATLVIPFSLANEVMGYWYFGKAWCEIYLALDVLFCTSSIVHLCAISLDRYWSITQAIEYNLKRTPRRIKAIIITVWVISAVISFPPLISIEKKGGGGGPQPAEPRCEINDQKWYVISSCIGSFFAPCLIMILVYVRIYQIAKRRTRVPPSRRGPDAVAAPPGGTERRPNGLGPERSAGPGGAEAEPLPTQLNGAPGEPAPAGPRDTDALDLEESSSSDHAERPPGPRRPERGPRGKGKARASQVKPGDSLPRRGPGATGIGTPAAGPGEERVGAAKASRWRGRQNREKRFTFVLAVVIGVFVVCWFPFFFTYTLTAVGCSVPRTLFKFFFWFGYCNSSLNPVIYTIFNHDFRRAFKKILCRGDRKRIV	–
–	–	–	56.8	67.6	38.5	53.8	76.6	27	73	60	30	3.7	49	wild-type alpha-2C adrenergic receptor, P18825 1-462 (receptor) MASPALAAALAVAAAAGPNASGAGERGSGGVANASGASWGPPRGQYSAGAVAGLAAVVGFLIVFTVVGNVLVVIAVLTSRALRAPQNLFLVSLASADILVATLVMPFSLANELMAYWYFGQVWCGVYLALDVLFCTSSIVHLCAISLDRYWSVTQAVEYNLKRTPRRVKATIVAVWLISAVISFPPLVSLYRQPDGAAYPQCGLNDETWYILSSCIGSFFAPCLIMGLVYARIYRVAKRRTRTLSEKRAPVGPDGASPTTENGLGAAAGAGENGHCAPPPADVEPDESSAAAERRRRRGALRRGGRRRAGAEGGAGGADGQGAGPGAAESGALTASRSPGPGGRLSRASSRSVEFFLSRRRRARSSVCRRKVAQAREKRFTFVLAVVMGVFVLCWFPFFFIYSLYGICREACQVPGPLFKFFFWIGYCNSSLNPVIYTVFNQDFRPSFKHILFRRRRRGFRQ	–
